These results are taken from patent publication US20240358850A1.

The target in the test is denatured collagen type-IV. As to the kind of experiment: cell-based or functional assay.

B1: Humanized anti-HU177 antibody (antibody, human IgG1, kappa, V domains shown)
VH: QVTLKESGPALVKPTQTLTLTCTFSGFSLSTPGMGVWWIRQPPGKALEWLADIWWDDNKYTNPSLKSRLTISKDTSKNQVVLTMTNMDPVDTATYYCARRANYGNPYYAQDYWGQGTTVTVSS
VL: DIVMTQTPLSLPVTPGEPASISCRSSQSIVSSWGNTYLEWYLQKPGQSPQLLIYKVSNRFSGVPDRFSGSGSGTDFTLKISRVEAEDVGVYYCFQGSHVPWTFGQGTKVEIKR
B1 gave an inhibition of B16F10 melanoma cell adhesion to denatured collagen type-IV coated wells (antibody 100 µg/ml) greater than 40%.

B2: MMAE-conjugated anti-HU177 antibody (Anti-HU177-MMAE) (antibody, V domains shown)
VH: B1 VH
VL: B1 VL
modifications: MMAE conjugated with the Perkit Antibody MMAE Conjugation Kit; conjugation sites and chain not stated
Turning to B2, the inhibition of B16F10 melanoma cell adhesion to denatured collagen type-IV coated wells (antibody 100 µg/ml) is greater than 40%.
